Data: patent US20190142860A1, “NUCLEIC ACID BASED TIA-1 INHIBITORS” (Aquinnah Pharmaceuticals, Inc., priority 2015, published 2019)

Columns and labels:
[1] = target: Nucleolysin TIA-1 (endogenous mouse TIA1) (mouse) (UniProt P52912); experiment: TIA1 IP-MS, WT1 cortex
[2] = target: Nucleolysin TIA-1 (endogenous mouse TIA1) (mouse) (UniProt P52912); experiment: TIA1 IP-MS, WT2 cortex
[3] = target: Nucleolysin TIA-1 (endogenous mouse TIA1) (mouse) (UniProt P52912); experiment: TIA1 IP-MS, WT3 cortex
[4] = target: Nucleolysin TIA-1 (endogenous mouse TIA1) (mouse) (UniProt P52912); experiment: TIA1 IP-MS, tau KO 1 cortex
[5] = target: Nucleolysin TIA-1 (endogenous mouse TIA1) (mouse) (UniProt P52912); experiment: TIA1 IP-MS, tau KO 2 cortex
[6] = target: Nucleolysin TIA-1 (endogenous mouse TIA1) (mouse) (UniProt P52912); experiment: TIA1 IP-MS, tau KO 3 cortex

Chain of UniProt P52912 (P52912 whole entry): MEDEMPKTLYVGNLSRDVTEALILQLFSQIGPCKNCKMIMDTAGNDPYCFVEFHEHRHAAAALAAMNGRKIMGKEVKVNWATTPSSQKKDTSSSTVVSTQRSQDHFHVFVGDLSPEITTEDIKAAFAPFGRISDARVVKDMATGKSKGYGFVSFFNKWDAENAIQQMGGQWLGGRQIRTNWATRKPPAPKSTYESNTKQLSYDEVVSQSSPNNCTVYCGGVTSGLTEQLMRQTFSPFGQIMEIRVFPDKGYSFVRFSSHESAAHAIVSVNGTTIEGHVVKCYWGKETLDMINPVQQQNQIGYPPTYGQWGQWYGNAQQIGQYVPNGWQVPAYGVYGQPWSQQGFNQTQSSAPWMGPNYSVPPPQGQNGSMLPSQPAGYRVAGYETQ

Substance	total ion current (normalized to TIA1 = 1000) [1]	total ion current (normalized to TIA1 = 1000) [2]	total ion current (normalized to TIA1 = 1000) [3]	total ion current (normalized to TIA1 = 1000) [4]	total ion current (normalized to TIA1 = 1000) [5]	total ion current (normalized to TIA1 = 1000) [6]
Isoform 2 of Heterogeneous nuclear ribonucleoprotein Q (from UniProt Q7TMK9 2-562)	14.7	249	0	19.8	48.5	0
Stress-70 protein, mitochondrial (from UniProt P38647 47-679)	0	173	77.5	0	101	0
Mitogen-activated protein kinase 1 (from UniProt P63085 2-358)	0	112	0	0	72.4	141
Isoform 2 of NAD-dependent protein deacetylase sirtuin-2 (from UniProt Q8VDQ8 1-352)	0	175	48.2	0	0	0
Cytochrome b-c1 complex subunit 1, mitochondrial (from UniProt Q9CZ13 35-480)	0	1320	2460	0	1030	0
Isoform 2 of Alpha-adducin (from UniProt Q9QYC0 1-632)	0	121	0	0	0	0
Acetyl-CoA acetyltransferase, mitochondrial (from UniProt Q8QZT1 31-424)	0	175	18.1	0	70.3	0
Isoform I of Septin-6 (from UniProt Q9R1T4 2-427)	0	53.3	0	0	35.6	0
Isoform 2 of Gelsolin (from UniProt P13020 1-731)	0	0	0	144	0	0
Splicing factor 45 (from UniProt Q8JZX4 2-405)	1.59	0	0	0	0	0
Proteasome subunit alpha type-4 (from UniProt Q9R1P0 1-261)	10.5	0	0	0	0	0
Isoform 2 of Heterogeneous nuclear ribonucleoprotein F (from UniProt Q9Z2X1 1-395)	0	42.5	48.2	0	39.6	0
Transformer-2 protein homolog beta (from UniProt P62996 2-288)	0	70.9	0	0	33.3	0
39S ribosomal protein L46, mitochondrial (from UniProt Q9EQI8 1-283)	0	52.7	0	0	0	0
NADH dehydrogenase [ubiquinone] flavoprotein 1, mitochondrial (from UniProt Q91YT0 21-464)	0	179	0	0	0	0
Isoform Cytoplasmic of Fumarate hydratase, mitochondrial (from UniProt P97807 1-467)	0	57.7	0	0	49.2	0

Continued, values first:

total ion current (normalized to TIA1 = 1000) [1]	total ion current (normalized to TIA1 = 1000) [2]	total ion current (normalized to TIA1 = 1000) [3]	total ion current (normalized to TIA1 = 1000) [4]	total ion current (normalized to TIA1 = 1000) [5]	total ion current (normalized to TIA1 = 1000) [6]	Substance
0	819	131	0	477	0	Malate dehydrogenase, mitochondrial (from UniProt P08249 25-338)
9.46	0	0	123	0	0	Catenin beta-1 (from UniProt Q02248 2-781)
0	148	0	0	13	0	Isoform Beta-II of Protein kinase C beta type (from UniProt P68404 2-673)
0	98.7	8.56	0	91.6	0	Isoform 2 of Protein-L-isoaspartate(D-aspartate)-O-methyltransferase (from UniProt P23506 2-228)
3.01	0	0	18.8	0	0	Glycerol-3-phosphate dehydrogenase, mitochondrial (from UniProt Q64521 43-727)
31.6	0	0	0	0	0	Glutathione S-transferase P 1 (from UniProt P19157 2-210)
0	22.7	0	0	0	0	Sorting and assembly machinery component 50 homolog (from UniProt Q8BGH2 1-469)
0	818	164	0	421	0	Aconitate hydratase, mitochondrial (from UniProt Q99KI0 28-780)
5.71	0	0	7.66	0	0	Serine protease HTRA1 (from UniProt Q9R118 23-480)
0	81	0	0	0	0	Protein NipSnap homolog 2 (from UniProt O55126 28-281)
0	192	14.7	0	96	0	Dihydropyrimidinase-related protein 3 (from UniProt Q62188 1-570)
